# Measured values published in publication PMC3794156, “Structure of the ParM filament at 8.5 Å resolution” (Journal of Structural Biology, 2013).
# B1: ParM (actin-like protein of the ParMRC system of Escherichia coli R1 plasmid), wild type (natural protein)
# chain: MLVFIDDGSTNIKLQWQESDGTIKQHISPNSFKREWAVSFGDKKVFNYTLNGEQYSFDPISPDAVVTTNIAWQYSDVNVVAVHHALLTSGLPVSEVDIVCTLPLTEYYDRNNQPNTENIERKKANFRKKITLNGGDTFTIKDVKVMPESIPAGYEVLQELDELDSLLIIDLGGTTLDISQVMGKLSGISKIYGDSSLGVSLVTSAVKDALSLARTKGSSYLADDIIIHRKDNNYLKQRINDENKISIVTEAMNEALRKLEQRVLNTLNEFSGYTHVMVIGGGAELICDAVKKHTQIRDERFFKTNNSQYDLVNGMYLIGN
# notes: ParM, plasmid segregation protein of actin fold, encoded by Escherichia coli R1 plasmid; Forms double-helical filaments of two protofilaments with AMPPNP or ATP; also called ParM protein; wild type protein; source: E. coli BL21-AI, plasmid pJSC1, in cell lysate for the polymerisation assay
# Molecular target: the molecule itself
# Assay: cryo-EM structure; 30 uM ParM in polymerisation buffer (30 mM Tris-HCl, 25 mM KCl, 2 mM MgCl2, 1 mM DTT, pH 7.5) with 5 mM AMPPNP, 5 min at room temperature; filaments spun down and resuspended; helical reconstruction at 8.5 Å
protein,measurement,value
B1,binding result,binds
